Columns and labels:
[1] = biological target: HFD300.1 (HFD300-132K) Wild Type; assay: Eu-ligand saturation binding
[2] = biological target: 120-G564S/320.1; assay: Eu-ligand binding
[3] = biological target: 120-G564S/320.1; assay: biotin-ligand binding
[4] = biological target: HFD300.1; assay: 125I-ligand binding

B1: Eu-NRG1β1 (ligand)
chain: SHLVKCAEKEKTFCVNGGECFMVKDLSNPSRYLCKCPNEFTGDRCQNYVMASFYKHLGIEFMEAE
- Kd [1]: 3.11 nM

B2: EU-EGF (ligand)
chain: NSDSECPLSHDGYCLHDGVCMYIEALDKYACNCVVGYIGERCQYRDLKWWELR
- Kd [2]: 0.877 nM

B3: HB-EGF-biotin (ligand)
chain: DLQEADLDLLRVTLSSKPQALATPNKEEHGKRKKKGKGLGKKRDPCLRKYKDFCIHGECKYVKELRAPSCICHPGYHGERCHGLSL
- Kd [3]: 0.211 nM

B4: NRG1β (ligand)
chain: B1 chain
- Kd [4]: 12.1 nM
